Legend:
[1] = biological target: ESX-3 core complex protomer EccB3:EccC3:EccD3:EccE3, from pMyNT:ESX-3 (whole gene cluster) (Mycobacterium smegmatis) (UniProt A0QQ39); experiment: SEC
[2] = biological target: EccB3:EccC3:EccD3 subcomplex (Mycobacterium smegmatis) (UniProt A0QQ39); experiment: SEC
[3] = biological target: ESX-3 core complex protomer EccB3:EccC3:EccD3:EccE3 (1:1:2:1), from pMyNT:Mini (Mycobacterium smegmatis) (UniProt A0QQ39); experiment: cryo-EM structure
[4] = biological target: T1, EccC3 with C-terminal His-tag (Mycobacterium smegmatis, UniProt A0QQ40 1-1325); experiment: densitometry of SDS-PAGE bands
T1 sequence: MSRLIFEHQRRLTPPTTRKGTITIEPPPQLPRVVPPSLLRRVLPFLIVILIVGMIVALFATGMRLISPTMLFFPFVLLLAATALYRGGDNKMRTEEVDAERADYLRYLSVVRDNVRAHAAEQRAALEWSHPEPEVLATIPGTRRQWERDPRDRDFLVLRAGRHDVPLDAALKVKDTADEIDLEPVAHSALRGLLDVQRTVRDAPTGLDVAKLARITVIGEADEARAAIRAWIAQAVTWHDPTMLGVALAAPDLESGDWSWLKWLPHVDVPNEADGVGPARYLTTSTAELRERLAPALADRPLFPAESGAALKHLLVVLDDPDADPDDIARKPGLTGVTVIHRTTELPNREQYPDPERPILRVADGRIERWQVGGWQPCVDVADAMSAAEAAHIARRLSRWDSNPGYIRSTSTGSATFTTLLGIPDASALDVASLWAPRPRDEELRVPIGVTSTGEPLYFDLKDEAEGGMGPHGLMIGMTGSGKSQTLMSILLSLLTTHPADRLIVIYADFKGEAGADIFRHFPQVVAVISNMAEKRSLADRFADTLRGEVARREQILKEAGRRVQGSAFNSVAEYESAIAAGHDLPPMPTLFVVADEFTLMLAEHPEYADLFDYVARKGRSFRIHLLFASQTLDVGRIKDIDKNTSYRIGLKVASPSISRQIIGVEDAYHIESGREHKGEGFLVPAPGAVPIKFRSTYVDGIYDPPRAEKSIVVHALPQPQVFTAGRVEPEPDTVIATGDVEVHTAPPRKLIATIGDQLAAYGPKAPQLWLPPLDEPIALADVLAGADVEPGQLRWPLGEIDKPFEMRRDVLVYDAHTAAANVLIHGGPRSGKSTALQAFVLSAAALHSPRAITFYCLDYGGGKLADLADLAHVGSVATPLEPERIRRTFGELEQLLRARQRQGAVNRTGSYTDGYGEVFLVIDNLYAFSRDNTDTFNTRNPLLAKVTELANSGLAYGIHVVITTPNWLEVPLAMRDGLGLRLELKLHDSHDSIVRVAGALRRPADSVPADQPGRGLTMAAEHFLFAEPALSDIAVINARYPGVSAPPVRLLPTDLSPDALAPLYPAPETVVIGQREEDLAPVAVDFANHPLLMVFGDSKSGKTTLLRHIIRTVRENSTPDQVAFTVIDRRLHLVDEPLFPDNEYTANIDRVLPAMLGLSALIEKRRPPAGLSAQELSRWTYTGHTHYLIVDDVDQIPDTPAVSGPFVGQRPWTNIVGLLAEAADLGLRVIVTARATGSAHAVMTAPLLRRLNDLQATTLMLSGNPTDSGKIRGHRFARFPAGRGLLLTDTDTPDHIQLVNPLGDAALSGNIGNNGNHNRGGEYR

cryo-EM structure = biological target: the molecule itself; experiment: cryo-EM structure
SEC-MALS = biological target: the molecule itself; experiment: SEC-MALS

Q: With “ESX-3 core complex protomer EccB3:EccC3:EccD3:EccE3, from pMyNT:ESX-3 (whole gene cluster) (from UniProt A0QQ39;A0QQ40;A0QQ46;A0QQ48)” as the molecule, how does the stoichiometry N [1] read?
A: 2

Q: With “EccB3:EccC3:EccD3 subcomplex (from UniProt A0QQ39;A0QQ40;A0QQ46)” as the molecule, how does the stoichiometry N [2] read?
A: 2

Q: How did the stoichiometry N [3] turn out when “ESX-3 core complex protomer EccB3:EccC3:EccD3:EccE3 (1:1:2:1), from pMyNT:Mini (from UniProt A0QQ39;A0QQ40;A0QQ46;A0QQ48)” was run?
A: 2

B1: EccE3 (natural protein)
chain: MTARIALASLFVVAAVLAQPWQTTTQRWVLGVSIAAVIVLLAWWKGMFLTTRIGRALAMVRRNRAEDTVETDAHRATVVLRVDPAAPAQLPVVVGYLDRYGITCDKVRITHRDAGGTRRSWISLTVDAVDNLAALQARSARIPLQDTTEVVGRRLADHLREQGWTVTVVEGVDTPLPVSGKETWRGVADDAGVVAAYRVKVDDRLDEVLAEIGHLPAEETWTALEFTGSPAEPLLTVCAAVRTSDRPAAKAPLAGLTPARGRHRPALAALNPLSTERLDGTAVPLPAVVRTSVKGSVEHEAAQEAGHPA
Q: How did the “stoichiometry N” value [4] turn out when B1 was run?
A: 1

B2: EccB3 (natural protein)
chain: MTGPVNPDDRRSFSSRTPVNENPDGVQYRRGFVTRHQVSGWRFVMRRIASGVALHDTRMLVDPLRTQSRAVLTGALILVTGLVGCFIFSLFRPGGVPGNNAILADRSTSALYVRVGEQLHPVLNLTSARLISGSPDNPTMVKTSEIDKFPRGNLLGIPGAPERMVQNAATDAEWTVCDAVGGANPGVTVIAGPLGADGERAAPLPPDHAVLVHSDAEPNPGDWLLWDGKRSPIDLADRAVTDALGLGGQALAPRPIAAGLFNAVPAAPALTAPVIPDAGAAPQFELSLPVPVGAVVVAYDADNTARYYAVLSDGLQPISPVLAAILRNTDSHGFAQPPRLGPDEVARTPMSRGLDTSAYPDNPVTLVEASAHPVTCAHWTKPSDAAESSLSVLSGAVLPLAEGLHTVDLVGAGAGGAANRVALTPGTGYFVQTVGAEPGSPTAGSMFWVSDTGVRYGIDTAEDDKVVAALGLSTSPLPVPWSVLSQFAAGPALSRGDALVAHDAVSTNPNSARMEASR
Q: B2 was tested. Which “stoichiometry N” value (cryo-EM structure) did it give?
A: 2

Q: What about the “stoichiometry N” value [4] of the same molecule?
A: 1

B3: EccD3 with N-terminal Strep-tag II (natural protein)
chain: MSENTVMPIVRVAVLAAGDDGGRLTEMALPSELPLREILPAVQRIVQPARENDGAADPAAAPNPVRLSLAPIGGAPFSLDATLDTVGVVDGDLLALQAVPSGPPAPRIVEDIADAAVIFSEARRRQWGPTHIARGAALALIGLILVGTGLSVAHRVITGDLLGQFIVSGIALATVIAALAVRNRSAVLATSLAVTALVPVAAAFALGVPGDFGAPNVLLAAAGVAAWSLISMAGSPDDRGIAVFTATAVTGVGVLLVAGAASLWVISSDVIGCALVLLGLIVTVQAAQLSAMWARFPLPVIPAPGDPTPAARPLSVLADLPRRVRVSQAHQTGVIAAGVLLGVAGSVALVSSANASPWAWYIVVAAAAGAALRARVWDSAACKAWLLGHSYLLAVALLVAFVIGDRYQAALWALAALAVLVLVWIVAALNPKIASPDTYSLPMRRMVGFLATGLDASLIPVMALLVGLFSLVLDR
Q: Which “stoichiometry N” value (SEC-MALS) does the source give for B3 here?
A: 2

Q: And the “stoichiometry N” value [4]?
A: 2

B4: EccD3 (untagged, from the ESX-3 gene cluster plasmid pMyNT:ESX-3) (natural protein)
chain: B3 chain
Q: How did the “stoichiometry N” value [4] turn out when B4 was run?
A: 2
